Laboratory results published in IntAct's records for PubMed 12361576.

B1: Cofilin-1-A (Xenopus laevis (African clawed frog)), P45695 (parent)
chain: MASGVMVSDDVIKVFNEMKVRHQLSPEDAKKRKKAVVFCLSDDKKTIILEPGKEILQGDIGCNVEDPYKTFVKMLPRNDCRYALYDALYETKETKKEDLVFVFWAPEEASLKSKMIYASSKDAIKKRLPGIKHEWQINTYEDVNDPCNLADKLGGNTVVSLEGKSVRS

Variants of: B1
Details: with 1433z_bovin YWHAZ

| Variant | effect of a mutation on the interaction |
| --- | --- |
| S3A | decreasing interaction |
